Reference: patent US12428627B2, “Mutant p-hydroxyphenylpyruvate dioxygenase, and coding nucleic acid and use thereof” (Qingdao Kingagroot Chemical Compound Co., Ltd., priority 2018, dated 2025)

How the values were obtained:
[1] = system: Huaidao No. 5 rice seedlings; assay: Gene-edited rice seedlings (base editing / homologous replacement of HPPD gene) on medium containing tembotrione; type: in vivo; settings: medium containing 0.4 μM tembotrione
Method: The calli of Huaidao No. 5 (at least 3000 callis) were infected according to the aforesaid method for infecting rice callis with Agrobacterium. After being infected with Agrobacterium, the infected calli were transferred to a 50 mg/L hyg screening medium for screening culture. After three rounds (15 days×3) of screening, the blond calli with good growth state were picked out to differentiate in a differentiation medium, and 0.2 μM tembotrione was added during the differentiation process for screening. After for 3-4 weeks, about 1,500 seedlings with around 1 cm were obtained. As to the about 1,500 differentiated seedlings, the vast majority of which had been bleached, and only 4 seedlings remained normal green. The 4 seedlings were transplanted to a rooting medium containing 0.4 μM tembotrione and cultivated for 2 weeks, wherein two seedlings had been bleached, while the other two seedlings remained green (FIG. 14A). A small number of leaves were used to extract genomic DNA by CTAB method. PCR was carried out by using the primers oshppd54F: TTCCACCACGTCGAGCTC and Oshppd356R: […]. The amplified product was detected by 1% agarose electrophoresis and sequenced by Sanger sequencing method. […]

[2] = system: rice HPPD (OsHPPD); assay: Color reaction of recombinant E. coli expressing wild-type or mutant rice HPPD, cultured in 96-well plate in medium containing an HPPD-inhibiting herbicide and tyrosine; type: cell-based, Oryza sativa; set-up: key to relative resistance to Tembotrione / relative resistance to Benzuofucaotong metabolic product / relative resistance to Huanbifucaotong / relative resistance to Topramezone / relative resistance to Mesotrione / resistance to Tembotrione / resistance to Benzucfucaotong metabolic product / resistance to Huanbifucaotong / resistance to Topramezone / resistance to Mesotrione: The more the plus sign “+”, the deeper the color and the higher the resistance/tolerance as compared to the wild type
Text: The rice full-length OsHPPD enzyme has 446 amino acids and its amino acid sequence is set forth in SEQ ID NO: 2, wherein the amino acids 1-50 are considered to constitute a signal peptide which is responsible for directing into chloroplast (Siehl et al. Plant Physiol. 2014 November; 166(3): 1162-1176). Therefore, from the amino acid at the 51-position to the amino acid at the […], a saturated random mutation was made for each amino acid. This was achieved by performing a bridge PCR by using a primer containing a coding sequence of an amino acid to be mutated into NNK and another suitable conventional primer. In NNK, N represented A/T/G/C and K represented G/T, and the NNK codon could encode any one of 20 amino acids or terminators. Accordingly, this was a saturated mutation. Please see: Kille S. Acevedo-Rocha C G, Parra L P, Zhang Z G, Opperman D J, Reetz M T, Acevedo J P (2013) Reducing codon redundancy and screening effort of combinatorial protein libraries created by saturation mutagenesis. ACS Synth Biol 2(2):83-92; Directed Evolution Library Creation: methods and protocols 2nd ed. Edited by Elizabeth M. J. Gillam, Janine N. Copp and David F. Ackerley New York, NY United States: Springer, 2014. doi:10.1007/978-1-4939-1053-3. A large number of mutants would be produced. The mutant was cloned into a linearized pET-44a vector and transformed into E. co/i, which was cultivated by using a 96-well plate in a 2×YT culture solution containing an HPPD-inhibiting herbicide (such as 1-2 μM tembotrione) and a substrate tyrosine (1 g/L) in a shaker at 28° C. and 150 rpm for 24 hours for expression, and then the mutants were rapidly screened out according to their color browning. By using the method, 10 single amino acid mutants, A103S, H141R, H141 K, H141T, A165V, V191I, R220K, G342D, D370N and K410I, were screened out. The color reaction of these resistant mutants in the presence of tembotrione and the metabolic product of benzuofucaotong relative to that of the wild type was as shown in FIG. 1.
Similarly, the color reaction of these mutants in the presence of the other three HPPD-inhibiting herbicides huanbifucaotong, topramezone and mesotrione were determined, see FIGS. 2 and 3. The resistance/tolerance of each of the mutants to the five herbicides was roughly estimated on the basis of color changes thereof and the results were shown in Table 1. The more the plus sign “+”, the deeper the color and the higher the resistance/tolerance as compared to the wild type.
HPPD-inhibiting herbicides inhibited HPPD enzymatic activity. When tyrosine was converted to 4-hydroxyphenylpyruvate (HPP) under the action of tyrosine transaminase, the inactivated HPPD was unable to oxidize 4-hydroxyphenylpyruvate into homogentisic acid (HGA). HGA was dark brown. Therefore, if an HPPD mutant was resistant to or tolerant to an herbicide, after expressed in E. coli, the mutant could also oxidize 4-hydroxyphenylpyruvate into homogentisic acid, whereby dark brown appeared. Therefore, E. coli was cultured in a 2×YT culture medium containing a HPPD-inhibiting herbicide and a substrate tyrosine using a 96-well plate to express HPPD, and these mutants were rapidly screened according to their color changes. • (1) Preparation of 2×YT culture medium (1 g/L L-Tyr, 0.1 mM IPTG, 0.01 mM MnCl2 and 100 mg/L ampicillin were added). • (2) 0.1 mL of the above medium was added to each well of a 96-well plate, and the expression clones of OsHPPD wild type or mutant (OsHPPD Mut) from the E. coli plate obtained by the above transformation were subjected to liquid culture in the 96-well plate. HPPD inhibitors having a final concentration of 1 μM-20 μM were added according to different selected agents, for example, the final concentration of tembotrione was 1.7 μM while mesotrione was 10 μM. […]

[3] = system: OsHPPD; assay: HPPD enzyme activity assay: Km, Kcat and Kcat/Km of OsHPPDs; type: biochemical, Oryza sativa; settings: substrate 4-HPP
Method: The rice OsHPPD protein and homogentisate 1,2-dioxygenase (HGD) were obtained by heterologously expressed in E. coli wherein the gene was inserted into the pET 15b expression vector and expressed in the BL21 (DE3) expression strain, and purified by the Ni-NTA resin. • (1) The HPPD open reading frame (ORF) of the positive clone was cloned into the pET-15b vector to form a 6His-HPPD expression vector, and transformed into the BL21 (DE3) cell. The expression strain was inoculated in 10 mL of 2×YT culture medium, and cultivated overnight on a shaker at 37° C. and 200 rpm. The 10 mL of the culture was inoculated in 1 L of 2×YT culture medium and cultivated until the OD600 reached 0.6-0.8, cooled to a temperature of 16° C., and subjected to induced-expression with 0.2 mM IPTG (isopropyl thiogalactoside) overnight. The strains were collected by centrifugation at 2800×g. • (2) The collected strains were re-suspended with the buffer A (50 mM Tris pH 8.0, 500 mM NaCl, 20 mM imidazole), to which PMSF (phenylmethanesulfonyl fluoride) at the final concentration of 1 mM and 250 μL of a protease inhibitor cocktail (i.e., a mixture of multiple protease inhibitors), and mixed. The cells were broken by ultrasound in ice-bath (40% total power, work for 3 seconds/6 seconds interval, 2×30 minutes (Ningbo Scientz Biotechnology Co., Ltd., Ningbo, China)), and centrifuged at 12000 rpm at 4° C. for 30 minutes; and the supernatant was filtered with a 0.22 μm filter membrane. • (3) Purification with the Ni-NTA column: the supernatant was in contact with the Ni-NTA resin, then rinsed with a buffer A containing 50 mM imidazole to remove the impurities, and finally, eluted with an elution buffer containing 400 mM imidazole. • (4) The approximate purity of the protein of interest was analyzed by SDS-PAGE. The eluates containing of the protein of interest were combined and concentrated by an ultrafiltration device (10 kDa molecular weight cut-off, Amicon Ultra). The solution was replaced with a solution containing 20 mM Tris-HCl and having a pH of 7.5 for at least 3 times to desalt. The total protein concentration was determined by the BCA method.
(§1) • 1. The activity of a HPPD enzyme was determined by detecting the conversion of 4-hydroxyphenylpyruvate (4-HPP) to homogentisic acid (HGA) catalyzed by the HPPD enzyme and the conversion of HGA to maleylacetoacetate (MAA) catalyzed by homogentisate dioxygenase. […] 6 μl of 4-hydroxyphenylpyruvate (4-HPP) having a concentration that was as 50 times as the final concentration of the substrate were added to an ELSA plate, and then 294 μL of hydroxyethylpiperazine ethanesulfonic acid (HEPES) with a final concentration of 25 mM and pH of 7, 2 mM of Vitamin C, 10 mM FeSO4, 50 nM homogentisate dioxygenase and 5 to 240 nM HPPD enzyme were added thereto at one time. The final concentration of reaction substrate 4-HPP usually ranged from 1 to 100 μM. • 3. The absorbance changes of the reaction wells at 318 nm were continuously monitored by a UV ELISA detector (ReadMax 1900 photoabsorption type full-wavelength microplate reader) (Shanghai). • 4. Determination of Km, Kcat and Kcat/Km of OsHPPDs
Vmax is the maximum catalytic reaction rate achievable by enzymatic catalysis. The Michaelis constant Km is the concentration of a substrate required when the enzyme catalyzed the reaction to achieve half of the maximum rate (Vmax). The Km value is a constant and independent of the enzyme concentration, and altered as substrate type, reaction temperature, pH, and ionic strength changed. […] is a catalytic constant of an enzyme and referred to the number of substrate molecules that could be catalyzed by an enzyme molecule or enzyme active center per second. KCat/Km represents the catalytic efficiency of enzyme. It could be seen from the data in the table that the catalytic efficiency of most HPPD mutants was enhanced.

[4] = system: OsHPPD proteins; assay: Inhibitory activity (IC50) of the herbicide 101 and huanbifucaotong against OsHPPD proteins; type: biochemical, Oryza sativa; settings: FIG. 10 inhibition curve
Method: as §1
• 5. Determination of inhibitory activity (IC50) of the herbicide 101 and huanbifucaotong against OsHPPD proteins
Due to the unique properties of each of 101 and huangbifucaotong, the degree of the increased IC50 value is not completely consistent for the two HPPD herbicides.

[5] = Table 1, single-site mutants, estimated from color change, wild type = +
[6] = Table 3, single-site and multi-site mutants, different time and plates, estimated from color shades

Row | Molecule | state of successfully edited seedlings [1] | color change compared with wild type ([2]; tembotrione and metabolic product of benzuofucaotong, FIG. 1) | Km [3] [µM] | concentration of compound 101 at which activity is completely inhibited [4] | relative resistance to Benzuofucaotong metabolic product [2, 5] | relative resistance to Huanbifucaotong [2, 5] | relative resistance to Mesotrione [2, 5] | relative resistance to Tembotrione [2, 5] | relative resistance to Topramezone [2, 5] | resistance to Benzucfucaotong metabolic product [2, 6] | resistance to Huanbifucaotong [2, 6] | resistance to Mesotrione [2, 6] | resistance to Tembotrione [2, 6] | resistance to Topramezone [2, 6]
1 | H141R: single-site mutant rice HPPD (protein, listed as Oryza sativa, The amino acid sequence of Wild-Type rice HPPD protein (OsHPPD _WT)) MPPTPTPTATTGAVSAAAAAGENAGFRLVGHRRFVRANPRSDRFQALAFHHVELWCADAASAAGRFAFALGAPLAARSDLSTGNSAHASLLLRSASVAFLFTAPYGGDHGVGADAATTASIPSFSPGAARRFAADHGLAVRAVALRVADAADAFRASVAAGARPAFQPADLGGGFGLAEVELYGDVVLRFVSHPDGADAPFLPGFEGVSNPGAVDYGLRRFDHVVGNVPELAPVAAYISGFTGFHEFAEFTAEDVGTAESGLNSVVLANNAETVLLPLNEPVHGTKRRSQIQTYLDHHGGPGVQHIALASDDVLGTLREMRARSAMGGFEFLAPPPPNYYDGVRRRAGDVLSEEQINECQELGVLVDRDDQGVLLQIFTKPVGDRPTFFLEMIQRIGCMEKDESGQEYQKGGCGGFGKGNFSELFKSIEEYEKSLEAKQAPTVQGS | remain green | obviously deeper than that of the wild type | – | – | – | – | – | – | – | – | – | – | – | –
2 | WT: wild-type rice p-hydroxyphenylpyruvate dioxygenase (OsHPPD), SEQ ID NO: 2 (protein, listed as Oryza sativa, The amino acid sequence of Wild-Type rice HPPD protein (OsHPPD _WT)) MPPTPTPTATTGAVSAAAAAGENAGFRLVGHRRFVRANPRSDRFQALAFHHVELWCADAASAAGRFAFALGAPLAARSDLSTGNSAHASLLLRSASVAFLFTAPYGGDHGVGADAATTASIPSFSPGAARRFAADHGLAVHAVALRVADAADAFRASVAAGARPAFQPADLGGGFGLAEVELYGDVVLRFVSHPDGADAPFLPGFEGVSNPGAVDYGLRRFDHVVGNVPELAPVAAYISGFTGFHEFAEFTAEDVGTAESGLNSVVLANNAETVLLPLNEPVHGTKRRSQIQTYLDHHGGPGVQHIALASDDVLGTLREMRARSAMGGFEFLAPPPPNYYDGVRRRAGDVLSEEQINECQELGVLVDRDDQGVLLQIFTKPVGDRPTFFLEMIQRIGCMEKDESGQEYQKGGCGGFGKGNFSELFKSIEEYEKSLEAKQAPTVQGS | – | – | 6.7 | about 60 μM | + | + | + | + | + | + | + | + | + | +
